The results in this text go back to the supplement of paper PMC9170038.

Data set [1] relates to MS2 coat protein. Kind of data set: apparent KD of MS2 coat protein; designed switch direction (-1 OFF switch, 1 ON switch): 1; higher = weaker reporter binding. The settings on record: Eterna round: R98. The method, then: (§1)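 RNA-MaP: designed FMN/MS2 RNA switches (84 nt design region) are transcribed on-chip within common flanks and titrated with SNAP-549-labelled MS2 coat protein (about 1-3000 nM) in 100 mM Tris pH 7.5, 80 mM KCl, 4 mM MgCl2, without or with 200 uM FMN. Median apparent KD per design; activation ratio = KD,OFF / KD,ON.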

In data set [2] the test system is MS2 coat protein. Put plainly: apparent KD of MS2 coat protein; higher = weaker reporter binding. The conditions noted are these: Eterna round: R101. The method, then: as §1
For data set [3], the system named is MS2 coat protein. Put plainly: apparent KD of MS2 coat protein, switch ON state; designed switch direction (-1 OFF switch, 1 ON switch): 1; higher = weaker reporter binding. The conditions noted are these: FMN input: 0 or 200 uM; Eterna round: R93 (includes R88 designs). Summed up: (§2)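 Illumina sequencing clusters served as templates for on-chip transcription of the designed RNA switches. SNAP-549-labelled MS2 coat protein was then titrated in twofold steps from 0.7 or 1.5 nM to 3 µM, allowing 0.8–1.5 h per step at first and 10–20 min per step later. The buffer held 100 mM Tris-HCl pH 7.5, 80 mM KCl and 4 mM MgCl2, without or with constant ligand. Apparent KD is the median per design of normalised cluster binding-curve fits.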

The test system of data set [4] is MS2 coat protein. Kind of data set: apparent KD of MS2 coat protein, switch OFF state (with FMN for OFF switches, without FMN for ON switches); designed switch direction (-1 OFF switch, 1 ON switch): 1; higher = weaker reporter binding. The settings on record: FMN input: 0 or 200 uM; Eterna round: R93 (includes R88 designs). In outline:
as §2

On to “UGGGAAUGAACAUGAGGAUCACCCAUGUCCCGGAAACGGAAUGAGGAUAUCCAUAGCAAAGCUAUGGAGAAGGCAUGGGUCCCA [SaneState 20 - Jieux - Same State NG 2]”, for which the “apparent KD of MS2 coat protein” value in data set [1] (input ligand: FMN 200 uM) is 475 nM; in data set [1] (input ligand: none), 756 nM.
As to “AGACCUGCUCAGAAGGUGGGAACGAGGCUGGAAACAGCCUCGAAAUUAAAUCCUUGAGGAUCACCCAAGGAUAUGAGCAGGUCA [#SharedSequence - IExNG2: 12] (puzzle (switch architecture): Inverted Exclusion NG 2)”, the “apparent KD of MS2 coat protein” value in data set [2] (input ligand: FMN 200 uM) was determined as 84.3 nM; in data set [2] (input ligand: none) it was 10.3 nM.
Take “GGUCGACCUCAAGGAUAUGGACUGCAAAGCAGUCCAGAAGGUGAGGAUCACCCACCUACGGUCAGGAAACUGACCGAUCGACCA [#SharedSequence - ExNG1-2] (puzzle (switch architecture): Exclusion NG 1)”: the “apparent KD of MS2 coat protein” value amounted to 117 nM in data set [2] (input ligand: FMN 200 uM) and 19.8 nM in data set [2] (input ligand: none).
Take “AGAGCUGCUCAGAAGGAGGAUCACCCUUUCGAAAGAAAUACGGAGGCUGAAAAGCCUCCGAAAUCUUAGGAUAUGAGCAGCUCA [#SharedSequence - IExNG2: 6] (puzzle (switch architecture): Inverted Exclusion NG 2)”: the “apparent KD of MS2 coat protein” value in data set [2] (input ligand: FMN 200 uM) is 166 nM; in data set [2] (input ligand: none), 153 nM.
Regarding “UAAUUAUGGUGAGGAUAUGCACAGGAUCACCGUGUAGAAGGCAUCAGGUAGAAGGUGCAGAGGAUCACCCUGUAAGGAUAUAUC [pwkr2 ssNG1 DX.18]”, the “apparent KD of MS2 coat protein” value in data set [1] (input ligand: FMN 200 uM) turned out to be 102 nM; in data set [1] (input ligand: none), 722 nM.
As to “AAUAAUCAGGUAGGAUAUGCUCAGGAUAACUGAGCAGAAGGACUAGAAACCUGAGGAUCACCCAGGUAACUGGAAUAAUAAUAA [Same State NG1 - A3C, U17G Submission 6B]”, the “apparent KD of MS2 coat protein” value is 57.4 nM in data set [1] (input ligand: FMN 200 uM) and 121 nM in data set [1] (input ligand: none).
“CACGUCCUCACAGGAUAUGCUGGACUUUGUCCAGCAGAAGGGUGACAUGAGGAUCACCCAUGUUAAAGGACGUGUAUAUUUAAU [Denovo 24]”: the “apparent KD of MS2 coat protein” value in data set [1] (input ligand: FMN 200 uM) was 126 nM; in data set [1] (input ligand: none), 652 nM.
With “CUUACUUUGUAGAAGGGUGACAUGAGGAUCACCCAUGUGCGUCUCCUGAAAGACCAGGGUACGCCACAGGAUAUACAAAGUAAG [Tigeatdi] (puzzle (switch architecture): Inverted Same State NG 2)”, the “apparent KD of MS2 coat protein” value turned out to be 59.8 nM in data set [2] (input ligand: FMN 200 uM) and 116 nM in data set [2] (input ligand: none).
On to “CAGGCUGCCAGAGGAUAAUGGACAUGAGGAUCACCCAUGUGUCAGGAUAUGGGUUUCACAUGGACUCAGAAGGGACCAGCUCGA [Raraator]”, for which the “apparent KD of MS2 coat protein” value in data set [1] (input ligand: FMN 200 uM) is 33.8 nM; in data set [1] (input ligand: none), 131 nM.
For the sequence “GGCUAACGGGCUAACAUGAGGAUCACCCAUGUGGACUCAUGGUAGGAUAUGCUGUACUUUGUACAGCAGAAGGGCCGGUGAGCC [Mat - Same State NG 3 - JL Mod - D9]”, the “apparent KD of MS2 coat protein” value in data set [1] (input ligand: FMN 200 uM) turned out to be 283 nM; in data set [1] (input ligand: none), 726 nM.
Consider “UAAAUAGAUCCUAGAGGAUCACCCUAGGAUAUCACCGUCGAGGUGCCAUAAUGGCACCUCGACGGUGAGAAGGAGGGAAAUAAA [#SharedSequence - SLExNG3: 2] (puzzle (switch architecture): Small Loop Exclusion NG 3)”, for which the “apparent KD of MS2 coat protein” value stood at 77.8 nM in data set [2] (input ligand: FMN 200 uM) and 51.2 nM in data set [2] (input ligand: none).
Consider “UGGAUCAAUACAGGAUAUGGUGACGCACAUGAGGAUCACCCAUGUCCGCAGCGUGCUAAGCACGCCCAGAAGGGUAUUGACUUG [Enxe]”, for which the “apparent KD of MS2 coat protein” value amounted to 106 nM in data set [1] (input ligand: FMN 200 uM) and 858 nM in data set [1] (input ligand: none).
Regarding “ACCAAUGGGUGAGGAUAUGCACAGGAUCACCGUGUAGAAGGCAUCAGGUAGAAGGUGCAGAGGAUCACCCUGUAAGGAUAUAUC [pwkr2 ssNG1 DX.14]”, the “apparent KD of MS2 coat protein” value in data set [1] (input ligand: FMN 200 uM) turned out to be 885 nM; in data set [1] (input ligand: none), 563 nM.
Take “GCUUGCGACGCAGGAUAUGGGUGCCUAAACACGAGGAUCACCCGUGUAAAGGAAGCGAAAAGCUCUCAGAAGGGCGUCGCAGGC [United States 7 - Jieux - Same State NG 2]”: the figures for the “apparent KD of MS2 coat protein” value in data set [1] (input ligand: FMN 200 uM) and in data set [1] (input ligand: none) were 17.2 nM and 19.2 nM, respectively.
Consider “GGAGACCACACAGGAUAUGCUGGACUUUGUCCAGCAGAAGGGUGUUUAACAUGAGGAUCACCCAUGUAGGUCUCCAAAUUUAAU [Denovo 59]”, for which the “apparent KD of MS2 coat protein” value is 17.7 nM in data set [1] (input ligand: FMN 200 uM) and 60.5 nM in data set [1] (input ligand: none).
“GGCGACGGUGUAGGAUAUGUGGGUUUCAAAGGGAUAGAAGGAUAGUUGGGAAUUAGGACAAGCAAACAUGAGGAUCACCCAUGU [Same STate NG 1]”: the “apparent KD of MS2 coat protein” value was 34.8 nM in data set [1] (input ligand: FMN 200 uM) and 44 nM in data set [1] (input ligand: none).
For the sequence “GCGCGCGGUUGAGGAUAUUUGCGUGCGGAUCGCCCGCGCACAUGAGGAUCACCCAUGUACGAGUAGGAGAAGGUGGCCCGUGUG [Same StateNG2]”, the “apparent KD of MS2 coat protein” value in data set [1] (input ligand: FMN 200 uM) is 178 nM; in data set [1] (input ligand: none) it was 236 nM.
For “AUGGGUUAAGGAGGAUAUAGAGGGAGGAGUAAACAUGAGGAUCACCCAUGUAUUUAAUUAGUUUACUAGAAGGCUUGUGAUUGU [1.8082e+07]” the same measures were 52.7 nM and 33.9 nM.
For the sequence “AAUAGUGGCGUAGGAUAUCUGCGUACAUGAGGAUCACCCAUGUCUCCCAGCUGCUGAGCUGGGACAGAGAAGGGCGACCGCAUA [Digece]”, the entries for the “apparent KD of MS2 coat protein” value in data set [1] (input ligand: FMN 200 uM) and in data set [1] (input ligand: none) were 76.4 nM and 226 nM, respectively.
For “AUUAACGGAGCUACAUGAGGAUCACCCAUGUACGGGUGAUCCUAGGAUAUGCCCGCAACUGUGUCGCAGAAGGAGGGUUGCCCA [Soterixe]”, the results for the “apparent KD of MS2 coat protein” value in data set [1] (input ligand: FMN 200 uM) and in data set [1] (input ligand: none) were 37.6 nM and 25.6 nM, respectively.
With “UCACUCACGUUAGGAUAUGGAUCGGAAAACGAUCCAGAAGGAACCUGCAAACCUGAGGAUCACCCGGGUUCCAAUAACGAGUGA [SameSame 9 - Jieux - Same State NG 1]”, the “apparent KD of MS2 coat protein” value in data set [1] (input ligand: FMN 200 uM) turned out to be 458 nM; in data set [1] (input ligand: none), 778 nM.
In the same order, the values of “GUCCCAGUCACAGGAUAUGGCUCCGUAACGGAACCAGAAGGGUGAUAUUCAGAAAACACACAUGAGGAUCACCCAUGUAAUAAA [Tiorbiti]” are 164 nM and 469 nM.
In the same order, the values of “CGGAAUUGUACAGGAUAUGAGGGUGCCUGAGCCUCAGAAGGGUAGACCGACAUGAGGAUCACCCAUGUAUGCGGAUAACGUCCG [Sobela]” are 1660 nM and 224 nM.
For the sequence “AGGUAGGUCACAGGAUAUCCCGUGAGCUACAUGAGGAUCACCCAUGUAUCACGACGAAAGAAGAAGGAGAAGGGUGACCCUGAU [Atqula]”, the entries for the “apparent KD of MS2 coat protein” value in data set [1] (input ligand: FMN 200 uM) and in data set [1] (input ligand: none) were 28.3 nM and 186 nM, respectively.
Take “CACUCCCGGUGAGGAUAUGCACAGGAUCACCGUGUAGAAGGCAUCAGGUAGAAGGUGCAGAGGAUCACCCUGUAAGGAUAUAUC [pwkr2 ssNG1 DX.12]”: the “apparent KD of MS2 coat protein” value was 94.5 nM in data set [1] (input ligand: FMN 200 uM) and 300 nM in data set [1] (input ligand: none).
For “AAAUAAAAUAUAGGAUAUGGAAACAUGAGGAUCACCCAUGUAAAAUAAAAUAAAUAAUAAUAUAACCAGAAGGAUAAAAUAAAA [LRO001_SS NG 2]” the same measures were 40.2 nM and 30.6 nM.
Turning to “UCCGCUAUCGCAGGAUAUUACAUGGGAAAGAGUACAUGAGGAUCACCCAUGUAAAAGAUCAUAAAUAAGAAGGGCGAUAGCGGA [Lame State 9 - Jieux - Same State NG 2]”, the results for the “apparent KD of MS2 coat protein” value in data set [1] (input ligand: FMN 200 uM) and in data set [1] (input ligand: none) were 214 nM and 18.8 nM, respectively.
As for “AGUUACAAACUCAACAUGAGGAUCACCCAUGUACUCUCAUGUAAGGAUAUACAUUCGUAUAGAAAGUAGAAGGUACUAAUUAUG [JR_SSNG3_Sub90]”, the entries for the “apparent KD of MS2 coat protein” value in data set [1] (input ligand: FMN 200 uM) and in data set [1] (input ligand: none) were 485 nM and 659 nM, respectively.
For “UCAACAAGGUGAGGAUAUGCACAGGAUCACCGUGUAGAAGGCAUCAGGUAGAAGGUGCAGAGGAUCACCCUGUAAGGAUAUACA [pwkr2 ssNG1 DX.9]” the same measures were 526 nM and 1320 nM.
With “CGUUGUUCCGCAGGAUAUGUAUUGGAUUACAAUACAGAAGGGCGAUAACAUGAGGAUCACCCAUGUGUGGACAAUGAGGAAGAG [SameState #38 NG1]”, the “apparent KD of MS2 coat protein” value is 54.9 nM in data set [1] (input ligand: FMN 200 uM) and 789 nM in data set [1] (input ligand: none).
With “GAAAAACAUGAGGAUCACCCAUGUAGAAAUAUGGGAGGAUAUACAAAGACGAAAGUCAAAGUAGAAGGCCUUAAAG [JL S1 M-MoE mod 1 In the Red]”, the “apparent KD of MS2 coat protein” value is 28.3 nM in data set [3] and 54.9 nM in data set [4].
As for “GAAGACAUAGUUCAGGAUAUAGGAAUAGUCACAUGAGGAUCACCCAUGUGCAUUUAUAUGCGCACUUAGAAGGGAGGUAGUUAUA [SameState2 Malc#22]”, the “apparent KD of MS2 coat protein” value in data set [3] was 32.2 nM; in data set [4] it was 26.4 nM.
In the same order, the values of “GAAAAACAUGAGGAUCACCCAUGUAGAGAUAUGGGAGGAUAUACGAAGACGAAAGACGAUGUAGAAGGCCUAAAAG [Garnet 59]” are 80.4 nM and 234 nM.
